In patent publication US20080076717A1:

Target: SPR-8: ASARM-PO4 biotin
Assay: SPR (Biacore 3000): biotinylated ASARM-PO4 captured on neutravidin, PHEX as analyte

PHEX (free soluble-PHEX analyte) (from UniProt P78562 46-749) (enzyme)
Kd: 168 nM
